What follows are binders tested against T1, SARS-CoV-2 (2019-nCoV) spike S1-Fc recombinant protein (Sino Biological, Inc.) (SARS-CoV-2, UniProt P0DTC2 16-685) (assay: not given).

Binder | Kd | koff | kon
Bacillus subtilis-derived VHH-COVE4 (VHH) VHH: AEVQLVESGGDVVQPGGSLRLSCAASGFTFTTYAMTWVRQAPGEGLEAVSTISGADGSTYYADSVKGRFTISRDNANNTVYLQMNSLKPEDTAVYYCAATPWYSASHTYWGQGTQVTVSSGGGSHHHHHH | 0.997 nM | 0.000114 s⁻¹ | 115000 M⁻¹ s⁻¹
Bacillus subtilis-derived VHH-COVE1 (VHH) VHH: AEVQLVESGGGLVQPGGSLRLSCAASGFAFSSYPMYWVRQAPGKGLEWISFIDGEGTSTSYADSVKGRFTISRDNAKNTVYLQMNSLKPEDTAVYYCNALLRRYNYGFTFDNYWGQGTQVTVSSGGGSHHHHHH | 3.63 nM | 0.00028 s⁻¹ | 77000 M⁻¹ s⁻¹

Molecular target: T1, SARS-CoV-2 (2019-nCoV) spike S1-Fc …
Assay: not given
Remark: another data set of the same source

Binder | Kd | koff | kon
VHH-COVE9-R108K (VHH) VHH: AEVQLVESGGGLVQPGGSLRLSCAASGTIFSTNAMSWYRQAPGKQRELVAAITSGGNTNYADSVKGRFTISRDNAKNTVYLQMNSLKPEDTAVYYCNAPGVVTGSYDVKNYWGQGTQVTVSSGSHHHHHH | 3.28 nM | 0.000437 s⁻¹ | 133000 M⁻¹ s⁻¹
VHH-COVE9-Y110S (VHH) VHH: AEVQLVESGGGLVQPGGSLRLSCAASGTIFSTNAMSWYRQAPGKQRELVAAITSGGNTNYADSVKGRFTISRDNAKNTVYLQMNSLKPEDTAVYYCNAPGVVTGSYDVRNSWGQGTQVTVSSGSHHHHHH | 4.74 nM | 0.000683 s⁻¹ | 144000 M⁻¹ s⁻¹
VHH-COVE9-N109D (VHH) VHH: AEVQLVESGGGLVQPGGSLRLSCAASGTIFSTNAMSWYRQAPGKQRELVAAITSGGNTNYADSVKGRFTISRDNAKNTVYLQMNSLKPEDTAVYYCNAPGVVTGSYDVRDYWGQGTQVTVSSGSHHHHHH | 8.38 nM | 0.00106 s⁻¹ | 126000 M⁻¹ s⁻¹

These binders were tested against Trimeric SARS-CoV-2 spike antigen full-length (Bio-Serv) (SARS-CoV-2, UniProt P0DTC2 14-1273) (assay: ELISA, VHH on nickel plate, spike in solution (0-500 ng/mL)).

Binder | absorbance (450 nm)
Bacillus subtilis-derived VHH-COVE8 (VHH) VHH: EVQLVESGGGLVQPGGSLTLSCAASGQTFSSYNMAWFRQSPGKEREFVATISWGGGSTGYADSVKGRFTISRDHAKNTVYLQMKDLKPEDTGAYYCYLVGLFGIQASDYWGQGTQVTVSS | 0.97
Bacillus subtilis-derived VHH-COVE5 (VHH) VHH: EVQLVESGGGLVQAGGSLRLSCTASDQIFDNYNMAWFRQSPGKEREFVAALSWGDSNTGYADSVKGRFTISRDNAKNTVYLQMNSLKPEDTAVYYCYAVTWLRGDYWGQGTQVTVSS | 0.97
Bacillus subtilis-derived VHH-COVE2 (VHH) VHH: AEVQLVESGGGLVQAGDSLRLSCAATRRTSSTYAMGWFRQAPGKGLEWVAAISWDGGRTYYAESVKGRFTISRDNAKNTVYLQMNSLKPEDTAVYYCYSFGGSDFLMDYWGQGTQVTVSSGGGSHHHHHH | 0.97
Bacillus subtilis-derived VHH-COVE3 (VHH) VHH: AEVQLVESGGGFVQAGGSLRLSCRVSAPTFMTYTMAWFRQAPGNEREFVAALSKNFVTTSYADSVKGRFTISRDNAKNTVYLQMNSLKPEDTAVYYCNVAWSDYEYLEVWGQGTLVTVSSGGGSHHHHHH | 0.97
Bacillus subtilis-derived VHH-COVE7 (VHH) VHH: EVQLVESGGGLVQAGDSLRLSCTASGRTFSSCAMGWFRQAPGKEREFVAAISRGGGSTSYADSVKGRFTISKDRARNTAYLEMNSLKPEDTAIYYCYAVFPSGGDYWGQGTQVTVSS | 0.97
Bacillus subtilis-derived VHH-COVE9 (VHH) VHH: EVQLVESGGGLVQPGGSLRLSCAASGTIFSTNAMSWYRQAPGKQRELVAAITSGGNTNYADSVKGRFTISRDNAKNTVYLQMNSLKPEDTAVYYCNAPGVVTGSYDVRNYWGQGTQVTVSS | 0.97

From patent US20230365659A1 (EPSILON MOLECULAR ENGINEERING, published 2023)
